Experimental findings from US20250387450A1 (AIKIUM, published 2025) are described below.

In test [1] the target is T1, CD74 disordered region peptide (CLIP), PPKPVSKMRMATPLLMQALPMGALP (biotin label).
T1 construct: also called CD74 Peptide
T1 peptide: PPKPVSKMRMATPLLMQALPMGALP
In words: modified sandwich ELISA, fluorescence grade by the table's key. As for the experimental part: (§1) Binder proteins were coated on the surface of a high binding capacity 96 well plate by incubating 100 μL of protein at 5 μg/mL in a coating solution (10 mM Tris pH 8.8, 50 mM NaCl), overnight at 4 C. The next morning, the coating solution was aspirated out and wells were washed once with 300 μL ELISA wash buffer (1×PBS, 0.05% Tween-20) and solution was aspirated out. The wells were blocked with 200 μL of a blocking buffer (1×PBS, 0.05% Tween-20, 3% BSA) at room temperature for 1 hour. After one hour, the blocking solution was aspirated out and 100 μL of biotinylated polypeptide in a binding buffer (1×PBS, 0.05% Tween-20, 0.5% BSA) at various concentrations was added to the appropriate well and incubated for 20 minutes. Peptide solution was aspirated out after 20 minutes and wells were washed 5 times with 300 μL of ELISA wash buffer. To detect the biotinylated peptide, 100 μL of streptavidin-HRP (50 ng/ml) was added to each well and incubated for 1 hour. The wells were subsequently washed 5 times with 300 μL of ELISA wash buffer. 100 μL of QuantaBlu Fluorogenic Peroxidase substrate solution was added to each well, incubated for 30 minutes and reaction stopped by adding 100 μL of stop solution. Fluorescent signal from each well was measured using a Biotek Cytation5 plate reader by exciting the fluorophore at […] and measuring emission at 420 nm. Fluorescent signals were plotted as a function of polypeptide concentration.
(In general: ELISA stands for enzyme-linked immunosorbent assay.)

The target in test [2] is T2, KAAG1 disordered region peptide, PGAAAAHLPRWPPPQLAASRREA (biotin label).
T2 construct: also called KAAG1 Peptide
T2 peptide: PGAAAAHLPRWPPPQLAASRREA
In words: modified sandwich ELISA, grade by the table's key. The protocol: as §1

Test [3] concerns the target T3, CYSLTR2 N-terminal disordered region peptide, MERKFMSLQPSISVSEMEPNGTFSNNNSRNCTIENFKREFFP (biotin label).
T3 construct: also called CysLT2; CysLT2r
T3 peptide: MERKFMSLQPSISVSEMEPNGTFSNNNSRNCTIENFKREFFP
In words: modified sandwich ELISA, fluorescence grade by the table's key. As for the experimental part: as §1

Test [4] concerns the target T4, TNFRSF13B disordered region peptide, LPPELRRQRSGEVENNSDNSGRYQ (biotin label).
T4 construct: also called TNFRSF13B Peptide
T4 peptide: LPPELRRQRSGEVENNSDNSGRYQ
Kind of test: modified sandwich ELISA, grade by the table's key. As for the experimental part:
as §1

In test [5] the target is T5, Urotensin-2 receptor N-terminal peptide, MALTPESPSSFPGLAATGSSVPEPPGGPNATLNSSWASPTEPSSLEDLVATGTI (biotin label).
T5 construct: also called Urotensin IIR; GPCR2 (Urotensin II)
T5 peptide: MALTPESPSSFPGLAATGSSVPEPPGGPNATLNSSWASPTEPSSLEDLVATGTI
Kind of test: modified sandwich ELISA, grade by the table's key. The protocol:
as §1

The target in test [6] is T2, KAAG1 disordered region peptide, …. In words: ELISA: scaffold coated on plate, biotinylated peptide titrated, streptavidin-HRP fluorescence. The protocol:
as §1

The target of test [7] is T6, GMERKFMSLQPSISVSEMEPNGTFSNNNSRNCTIENFKREFFP (biotinylated, position not given).
T6 construct: also called CYSLTR2 (longer peptide of the disordered region)
T6 peptide: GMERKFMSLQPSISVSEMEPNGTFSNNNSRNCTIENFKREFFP
The test is described as above. The protocol: as §1

For test [8], the target named is T7, CYSLTR2 short linear epitope peptide, SISVSEMEPNGTFSNNNSRNC (N-terminal biotin).
T7 peptide: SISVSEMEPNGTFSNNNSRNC
The description is as above. As for the experimental part:
as §1

Test [9] has as its target T8, KCNA6 short linear epitope peptide, QQQEQQPASGGGGQNGQQAMS (biotin label).
T8 construct: also called KCNA6 Peptide
T8 peptide: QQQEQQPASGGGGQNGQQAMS
The test is described as above. As for the experimental part:
as §1

For test [10], the target named is T4, TNFRSF13B disordered region peptide, …. The description is as above. The protocol: as §1
For test [11], the target named is T9, CD40LG short linear epitope peptide, NKEETKKENSFEMQKGDQNPQIAAH (biotin label).
T9 construct: also called CD40LG Peptide
T9 peptide: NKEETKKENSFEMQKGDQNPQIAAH
The description is as above. As for the experimental part: as §1

Residue numbers refer to the chain shown, from its start. Bounds are passed on as bounds.

B1: engineered scaffold protein S143 (designed binder)
chain: MGDTRPRFLWQLKFECHFFNGTERVRLLERCIYNQEESVRFDSDVGEYRAVTELGRPDAEYWNSQKDLLEQRRAAVDTYCRHNYGVGESFTVQRRVIKEEHVIIQAEFYLNPDQSGEFMFDFDGDEIFHVDMAKKETVWRLEEFGRFASFEAQGALANIAVDKANLEIMTKRSNYTPTINGGSHHHHHH
Take B1: the fluorescent signal in test [1] was above 400000 fluorescentsignal. The binding result in [2] is given as “no binding (tested: <5000 (fluorescence, key))”.

B2: engineered scaffold protein S078 (designed binder)
chain: GDTRPRFLWQLKFECHFFNGTERVRLLERCIYNQEESVRFDSDVGEYRAVTELGRPDAEYWNSQKDLLEQRRAAVDTYCRHNYGVGESFTVQRRSGGGIKEEHVIIQAEFYLNPDQSGEFMFDFDGDEIFHVDMAKKETVWRLEEFGRFASFEAQGALANIAVDKANLEIMTKRSNYTGGSHHHHHHLE
Regarding B2, the fluorescent signal in test [1] was above 400000 fluorescentsignal; in [3] it was 50000 to 100000 fluorescentsignal. The binding result is on record as “no binding (tested: <5000 (fluorescence, key))” in test [2]; “no binding (tested: <5000 (fluorescence, key))” in [4]; “no binding (tested: <5000 (fluorescence, key))” in test [5].

B3: engineered scaffold protein S058 (designed binder)
chain: GSHSMRYNYTSVSRPGRGEPRFISEGYVDDTQFVRFDSDAASPREEPRAPWIEQEGPEYWDRNTQIYKAQAQTDRESLRNLRGYYNQSEAGSHTLQSMYGCDVGPDGRLLRGHDQYYYDGKDYISLNEDLRSWTAADTAAQITQRKWEAAREAEQRRAYLEGECVEWLRRYLENGKDKLERADGGSHHHHHHLE
The molecule B3 showed a fluorescent signal in test [1] above 400000 fluorescentsignal. Further, the binding result in [5] is recorded as “no binding (tested: <5000 (fluorescence, key))”.

B4: engineered scaffold protein S065 (designed binder)
chain: B3 chain with N8F, E25V, Y59A, Y117A, Y123S, S125A, K146Y, W167H, Y171V
In test [1], B4 yielded a fluorescent signal above 400000 fluorescentsignal. For the same molecule, the binding result in test [4] is reported as “no binding (tested: <5000 (fluorescence, key))”; in [5] it was “no binding (tested: <5000 (fluorescence, key))”; in [6] it was “no binding (tested: 10000 nM)”.

B5: engineered scaffold protein S193 (designed binder)
chain: MGSKARMATGALAQAGGSGGSMIKEEHVINQAEYYLNPDQSGEFKFDFDGDEIFHVDMAKKETVWRLEEFGRFASFEAQGALAHIAVDKANLEIMTKRSNYTPMGDTRPRFLWQLKYECHFFNGTERVRLNERCIYNQEESVRFDSDVGEYRAVTELGRPDAEQWNSQKDHLEQRRAAVDTKCRHNYGVGESFTVQGGSHHHHHH
Regarding B5, the binding result in test [6] is on record as “no binding (tested: 10000 nM)”; in test [7], “binds”; in test [8], “binds”; in test [9] it was “no binding (tested: 10000 nM)”; in [10] it was “no binding (tested: 10000 nM)”; in test [11], “no binding (tested: 10000 nM)”.

B6: engineered scaffold protein S068 (designed binder)
chain: GDTRPRFLWQLKFECHFFNGTERVRLLERCIYNQEESVRFDSDVGEYRAVTELGRPDAEYWNSQKDLLEQRRAAVDTYCRHNYGVGESFTVQRRVEPKVTVYPSKTQPLQHHNLLVCSVSGFYPGSIEVRWFRNGQEEKAGVVSTGLIQNGDWTFQTLVMLETVPRSGEVYTCQVEHPSVTSPLTVEWRASGGGGSGGGGSGGGGIKEEHVIIQAEFYLNPDQSGEFMFDFDGDEIFHVDMAKKETVWRLEEFGRFASFEAQGALANIAVDKANLEIMTKRSNYTPITNVPPEVTVLTNSPVELREPNVLICFIDKFTPPVVNVTWLRNGKPVTTGVSETVFLPREDHLFRKFHYLPFLPSTEDVYDCRVEHWGLDEPLLKHWEFDAPSGGSHHHHHHLE
The molecule B6 yielded a fluorescent signal in [1] above 400000 fluorescentsignal. Also, the binding result is listed as “no binding (tested: <5000 (fluorescence, key))” in test [2]; “no binding (tested: <5000 (fluorescence, key))” in test [4]; “no binding (tested: <5000 (fluorescence, key))” in test [5].

B7: S180 (designed binder)
single chain: MKEEHVIIQAEFYLNPDQSGEFMFDFDGDEIFHVDMAKKETVWRLEEFGRFASFEAQGALANIAVDKANLEIMTKRSNYTPITNTRPRFLWQPKRECHFFNGTERVRFLDRYFYNQEESVRFDSDVGEFRAVTELGRPDAEYWNSQKDILEQARAAVDTYCRHNYGVVESFTVQRRVQGGSHHHHHHLE
notes: also called engineered scaffold protein S180
In the case of B7, the binding result in [7] and in [8] was “binds” in each case.

B8: engineered scaffold protein S098 (designed binder)
chain: PENYLFQGRQECNGTQFLERYIYNREEFVRFDEFRAVGRPDEEYWNSQKDILEEERAVPDRMCRHNYELGGPMTLQRRVQPRVNIKADHVSTYAAFVQRPFMFEFDEDEMFYVDLHLEEFGQAFSFEAQGGLANIAILNNNLNTRSNHTQATNDPPHHHHHHLE
Take B8: the fluorescent signal in test [1] is above 400000 fluorescentsignal; in [3] it was 100000 to 250000 fluorescentsignal. The binding result was “no binding (tested: <5000 (fluorescence, key))” in [2]; “no binding (tested: <5000 (fluorescence, key))” in [4]; “no binding (tested: <5000 (fluorescence, key))” in test [5].

B9: S189 (designed binder)
single chain: MGIKEEHVINQAEYCLNPDQSGEFKFDFDGDEIFHVDMAKKETVWRLEEFGRFASFEAQGALAHIAVDCANLEIMTKRSNYTPMGDTRPRFLWQLKYECHFFNGTERVRLNERCIYNQEESVRFDSDVGEYRAVTELGRPDAEQWNSQKDHLEQRRAAVDTKCRHNYGVGESFTVQGGSHHHHHH
notes: also called engineered scaffold protein S189
B9: the binding result in test [7] and in [8] was “binds” in each case.

B10: engineered scaffold protein S134 (designed binder)
chain: MVKYHHHHHHGGSENLYFQGMGDTRPRFLWQPKRECHFFNGTERVRFLDRYFYNQEESVRFDSDVGEFRAVTELGRPDAEYWNSQKDILEQARAAVDTYCRHNYGVVESFTVQRRVIKEEHVIIQAEFYLNPDQSGEFMFDFDGDEIFHVDMAKKETVWRLEEFGRFASFEAQGALANIAVDKANLEIMTKRSNYTPITN
B10 registered a fluorescent signal in [1] of 100000 to 250000 fluorescentsignal. Moreover, the binding result in test [2] is “no binding (tested: <5000 (fluorescence, key))”.

B11: engineered scaffold protein S077 (designed binder)
chain: KPVSKMRMATPLLMQALPMASGGGGSGGGGDTRPRFLWQLKFECHFFNGTERVRLLERCIYNQEESVRFDSDVGEYRAVTELGRPDAEYWNSQKDLLEQRRAAVDTYCRHNYGVGESFTVQRRSGGGIKEEHVIIQAEFYLNPDQSGEFMFDFDGDEIFHVDMAKKETVWRLEEFGRFASFEAQGALANIAVDKANLEIMTKRSNYTGGSHHHHHHLE
Consider B11, for which the fluorescent signal in test [1] is above 400000 fluorescentsignal; in test [3] it was 100000 to 250000 fluorescentsignal. Moreover, the binding result in [2] was “no binding (tested: <5000 (fluorescence, key))”; in [4] it was “no binding (tested: <5000 (fluorescence, key))”; in test [5], “no binding (tested: <5000 (fluorescence, key))”.
